“Also recorded” adds a separate entry of the source. Square brackets hold non-standard residues; d marks the D form. Hyp = O=C(O)[C@@H]1C[C@@H](O)CN1
Assays:
[1] = biological target: T1, PHD2 (prolyl-hydroxylase domain, residues 181–426) (Homo sapiens, UniProt Q9GZT9); test: Microscale thermophoresis (MST) binding of HIFα-CODD peptides to the catalytic domain of PHD2; conditions: for Binding to PHD2 (in words): 25 nM PHD2-647, with NOG, room temperature; for Kd (MST-determined PHD2/HIFα-CODD complex dissociation constant): 25 nM Alexa 647-labeled PHD2, Tris–HCl with NOG (1 mM NOG, 10 µM FeSO4, 5 mg/ml BSA in 2x MST Buffer pH 7.5), peptide in Tris pH 8.0, room temperature, 10 min incubation, 1:1 Kd model, triplicate measurements, highest concentration omitted for Y532H and P531A (aggregation)
T1 construct: encodes for His6-PHD2 (prolyl-hydroxylase domain, residues 181–426); His6 (N, cleaved yes); made in house; host or cells: E. coli BL21(DE3)
T1 sequence (Q9GZT9 181-426): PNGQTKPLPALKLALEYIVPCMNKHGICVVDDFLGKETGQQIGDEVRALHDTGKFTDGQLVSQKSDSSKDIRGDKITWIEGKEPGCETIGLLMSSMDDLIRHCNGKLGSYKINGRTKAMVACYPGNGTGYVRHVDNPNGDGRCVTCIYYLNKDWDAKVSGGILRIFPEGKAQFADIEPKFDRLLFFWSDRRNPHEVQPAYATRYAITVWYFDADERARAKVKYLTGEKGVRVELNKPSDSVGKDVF
Description: To determine if there is a direct effect of HIF2α mutations on PHD2 binding, we devised a quantitative method for determining the dissociation constant (Kd) of the HIF2α-CODD peptides and the catalytic domain of PHD2 using microscale thermophoresis (MST)[13],[14] in the presence of the PHD inhibitor n-oxalylglycine (NOG) to inhibit reaction turnover.
PHD2 was purified via a previously described but modified procedure[4],[30]. […] Cells were grown to an OD600 of 0.8 at 37 °C and expression of His6-PHD2 was induced with a final concentration of 0.5 mM IPTG. Cells were grown for an additional 3 h post-induction at 37 °C and harvested via centrifugation. Cell pellets were either used immediately for purification or stored at −80 °C for later use. Cell pellets were resuspended in Lysis Buffer (50 mM Tris–HCl pH 7.9, 500 mM NaCl, 5 mM Imidazole) containing 1x SigmaFast protease inhibitor cocktail (Sigma-Aldrich) and lysed with 3 passes through an Emulsiflex-C3 cell disruptor (Avestin) at 20-30 kPSI. […] Clarified lysates were applied to a 2 ml Ni-NTA (Thermo Scientific) column pre-equilibrated with Lysis Buffer. The beads were washed with 10 ml Lysis buffer and 2 × 30 ml of Wash Buffer (50 mM Tris–HCl pH 7.9, 500 mM NaCl, 30 mM Imidazole). His6-PHD2 was eluted by applying 10 ml Elution Buffer (50 mM Tris–HCl pH 7.9, 500 mM NaCl, 1 M Imidazole) to the column. Ni-NTA purified His6-PHD2 was dialyzed using a 10 kDa cut-off dialysis membrane against 2 L of Dialysis Buffer (50 mM Tris–HCl pH 7.5) for 4 h at 4 °C. […] Dialysis and thrombin cleavage were allowed to continue overnight at 4 °C. Thrombin-cleaved PHD2 was collected and applied to a 2 ml Ni-NTA column pre-equilibrated with Dialysis Buffer to remove uncleaved protein and cleaved His6 tags. The flow-through was collected and the beads were washed with 10 ml of Dialysis Buffer supplemented with 5 mM imidazole. The 5 mM imidazole eluate was pooled with the flow through and concentrated with an Amicon 10 kDa cut-off centrifugal concentrator (Millipore) to a volume of ~600 µl. The concentrated PHD2 was then applied to a Superdex 75 Increase 10/300 GL column (Cytiva) equilibrated with Dialysis Buffer or Labeling Buffer (50 mM HEPES pH 7.5, 150 mM NaCl) depending on the intended use of the sample. Eluted fractions containing PHD2 were collected and pooled. For the His6-PHD2 used in the indirect hydroxylation assay, no thrombin was added during dialysis steps therefore the His6-tag was not removed and the subsequent passage of the sample through Ni-NTA beads to remove His6-tags was not performed. Otherwise, the purification protocol for His6-PHD2 is the same as thrombin-cleaved PHD2. All purification steps were analyzed by SDS–PAGE and the Superdex 75 Increase chromatogram was used to assess size and aggregation, see Supplementary Fig. 5 for a representative purification assessment.
Labeling was conducted at room temperature for 1 h in the dark. Excess dye was then removed first by the passage of the sample through a PD-10 desalting column containing Sephadex G-25 resin (Cytiva) equilibrated with Dialysis Buffer and then any remaining excess dye was removed via repeated 10-fold dilution in Dialysis Buffer and subsequent concentration in an Amicon 10 kDa cut off centrifugal filter until the dye could no longer be detected in the concentrator flow through by Absorbance at 650 nm.
MST measurements were taken using a Monolith NT.115 (Nanotemper Technologies) at room temperature using standard MST capillaries (Nanotemper Technologies). […] For each HIFα-CODD peptide, ~1 mg dry weight of peptide was dissolved in 200 µl of 50 mM Tris–HCl pH 8.0 and concentrations were measured using UV absorbance at 280 nm for most peptides and BCA assay (Thermo Scientific) for Y532C and Y532H peptides using known concentrations of the WT HIF2α-CODD peptide to create a standard curve.

[2] = biological target: T1, PHD2 (prolyl-hydroxylase domain, residues 181–426); test: Aggregation of PHD2 by HIF2α-CODD peptides in MST experiments (MST time traces); type: physicochemical; conditions: peptide dilution series with PHD2, room temperature
Description: MST measurements were taken using a Monolith NT.115 (Nanotemper Technologies) at room temperature using standard MST capillaries (Nanotemper Technologies). A 2x stock of PHD2-647 was created by diluting PHD2-647 from a 10 µM stock to 50 nM with MST Buffer (50 mM Tris–HCl pH 7.5, 1 mM NOG, 10 µM FeSO4, 5 mg/ml BSA). For each HIFα-CODD peptide, ~1 mg dry weight of peptide was dissolved in 200 µl of 50 mM Tris–HCl pH 8.0 and concentrations were measured using UV absorbance at 280 nm for most peptides and BCA assay (Thermo Scientific) for Y532C and Y532H peptides using known concentrations of the WT HIF2α-CODD peptide to create a standard curve. The UV absorbance extinction coefficients for all HIF1α-CODD and HIF2α-CODD peptides used in this study is 1490 M^−1 cm^−1 except for HIF2α-CODD D539Y (2980 M^−1 cm^−1), HIF2α-CODD G537W (6990 M^−1 cm^−1) and HIF2α-CODD Y532C and Y532H which were not analyzed via absorbance at 280 nm due to the lack of any Tyrosine or Tryptophan residues in the peptides. For each experiment, 16 different concentrations of 15 µl peptide solution were created by 2-fold serial dilution of the peptide stock in 50 mM Tris–HCl pH 8.0. Each of the 16 peptide solutions was then mixed with an equal volume (15 µl) of 2× PHD2-647 solution resulting in a final 1× concentration of PHD2-647 at 25 nM. […] MST measurements were taken at 20% fluorescence excitation LED power and 40% (medium) infrared laser power. For each MST time trace initial fluorescence (pre-infrared laser activation) was recorded for 5 s, infrared laser on time was 20 s, and fluorescence post-infrared laser deactivation was recorded for 3 s. MST data was analyzed using the M.O. Affinity Analysis software (Nanotemper Technologies) and the 1:1 Kd binding model was fit to experimental data. […]
(also on this page, place not known: Relative Fluorescence Relative Fluorescence -10 30 Relative Fluorescence -10 30 Relative Fluorescence -10 30 Relative Fluorescence -10 30 Relative Fluorescence aggrega?on, (f) curves HIF2α-CODD)

PHD = conditions: cited from earlier work
Source text: (§1) Pacak-Zhuang syndrome is a pseudohypoxic disease resulting from the inappropriate stabilization of HIF2α under normoxic conditions caused by gain-of-function missense mutations in the CODD region of HIF2α. These missense mutations stabilize HIF2α by ultimately inhibiting proteasome-mediated destruction of HIF2α[2],[6],[21]. Previously, we hypothesized that the mutations in the HIF2α-CODD region disrupted the pVHL/HIF2α interface. This appeared to be true for most Class 1 mutants examined to date.

pVHL = conditions: prolyl-hydroxylated HIF2α peptides; cited from earlier work
Source text: as §1

[3] = biological target: Alexa 647 labeled PHD2 (catalytic / prolyl-hydroxylase domain, residues 181-426) (human) (UniProt Q9GZT9); test: MST; 25 nM Alexa 647 labeled PHD2, unlabeled peptide in 16 two-fold dilutions; room temperature; MST Buffer 50 mM Tris-HCl pH 7.5, 1 mM NOG, 10 µM FeSO4, 5 mg/ml BSA mixed 1:1 with peptide in 50 mM Tris-HCl pH 8.0; 1:1 Kd model; triplicate
Chain of Alexa 647 labeled PHD2 (catalytic / prolyl-hydroxylase domain, residues 181-426) (human) (Q9GZT9 181-426): as above

Row | Molecule | Binding to PHD2 (in words) ([1]; MST) | Aggregation of PHD2 in MST experiments [2] | Kd (MST-determined PHD2/HIFα-CODD complex dissociation constant) ([1]; MST) | also measured
1 | CC[C@H](C)[C@H](NC(=O)[C@H](Cc1ccc(O)cc1)NC(=O)[C@@H]1CCCN1C(=O)[C@H](C)NC(=O)[C@H](CC(C)C)NC(=O)[C@@H](NC(=O)[C@H](CCC(=O)O)NC(=O)[C@H](CC(C)C)NC(=O)[C@H](CC(=O)O)NC(=O)[C@H](CC(C)C)NC(=O)[C@H](CCC(=O)O)NC(C)=O)[C@@H](C)O)C(=O)N1CCC[C@H]1C(=O)N[C@@H](CCSC)C(=O)N[C@@H](CC(=O)O)C(=O)NCC(=O)N[C@@H](CCC(=O)O)C(=O)N[C@@H](CC(=O)O)C(=O)N[C@@H](Cc1ccccc1)C(=O)N[C@@H](CCC(N)=O)C(=O)N[C@@H](CC(C)C)C(N)=O [HIF2α WT] | showing binding | no aggrega?on |  | Kd ([1]; read-out: Kd (MST-determined PHD2/HIFα-CODD complex dissociation constant)): 34 ± 2 µM
2 | HIF2α A530V: Class 1 mutant HIF2α-CODD peptide (Ac-ELDLETLVPYIPMDGEDFQL-NH2) |  |  | No binding | PHD2 affinity / Kd compared with another peptide (in words) ([1]; MST, with NOG): significant effect on PHD2 binding affinity; also recorded: more detrimental to the interaction than A530T; Kd (Fit Results, Fit Model Kd) ([1]; MST, target WT-PHD2(181-426), TargetConcentration 2.5e-8, ligand HIF2a-CODD peptide, MST-Power Medium, Excitation-Power 20 Nano - RED, hot region 19 to 20, unit of Kd not printed (doses of the same sheet are in M), Fig. 1c source data): 0.03648; PHD-mediated hydroxylation (in words) (PHD): appeared to decrease PHD-mediated hydroxylation; Binding affinity for pVHL (in words) (pVHL): no effect on pVHL binding
3 | HIF2α P531A: Class 1 mutant HIF2α-CODD peptide (Ac-ELDLETLAAYIPMDGEDFQL-NH2) |  | some evidence of aggrega?on at the highest concentra?on | No binding^a | 
4 | HIF2α WT-OH: synthetically hydroxylated WT HIF2α-CODD-OH peptide, negative control (Ac-ELDLETLA[Hyp]YIPMDGEDFQL-NH2; SMILES CC[C@H](C)[C@H](NC(=O)[C@H](Cc1ccc(O)cc1)NC(=O)[C@@H]1C[C@@H](O)CN1C(=O)[C@H](C)NC(=O)[C@H](CC(C)C)NC(=O)[C@@H](NC(=O)[C@H](CCC(=O)O)NC(=O)[C@H](CC(C)C)NC(=O)[C@H](CC(=O)O)NC(=O)[C@H](CC(C)C)NC(=O)[C@H](CCC(=O)O)NC(C)=O)[C@@H](C)O)C(=O)N1CCC[C@H]1C(=O)N[C@@H](CCSC)C(=O)N[C@@H](CC(=O)O)C(=O)NCC(=O)N[C@@H](CCC(=O)O)C(=O)N[C@@H](CC(=O)O)C(=O)N[C@@H](Cc1ccccc1)C(=O)N[C@@H](CCC(N)=O)C(=O)N[C@@H](CC(C)C)C(N)=O) | did not bind to PHD2 | no ag grega?on | No Binding | Binding to PHD2 (in words) ([1]; MST, listed as WT-OH HIF2α-CODD): no
5 | HIF2α-CODD WT peptide (from UniProt Q99814 523-542) |  |  |  | Kd [3]: 34 µM

Reference: PMC10902354, “Deficiency in PHD2-mediated hydroxylation of HIF2α underlies Pacak-Zhuang syndrome” (Communications Biology, 2024)
